Results reported in article PMC10873205.

Biological target: UBR4_(xtal) (UBR4 residues 4,730–5,183) (human) (UniProt Q5T4S7)
Experiment: ITC; UBR4 construct in the cell (74 μM), UBE2A in the syringe at tenfold higher concentration; 25 °C; 0.4 µl then 13 injections of 3 µl; UBE2A into buffer subtracted; single site binding model

Sequence of UBE2A (P49459 whole entry): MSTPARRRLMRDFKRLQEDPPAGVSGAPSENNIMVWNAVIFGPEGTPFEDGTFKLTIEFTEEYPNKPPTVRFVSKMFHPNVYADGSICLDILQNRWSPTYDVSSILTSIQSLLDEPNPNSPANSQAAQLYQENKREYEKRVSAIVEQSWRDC
Sequence of UBR4_(xtal) (UBR4 residues 4,730–5,183) (human) (Q5T4S7 4730-5183): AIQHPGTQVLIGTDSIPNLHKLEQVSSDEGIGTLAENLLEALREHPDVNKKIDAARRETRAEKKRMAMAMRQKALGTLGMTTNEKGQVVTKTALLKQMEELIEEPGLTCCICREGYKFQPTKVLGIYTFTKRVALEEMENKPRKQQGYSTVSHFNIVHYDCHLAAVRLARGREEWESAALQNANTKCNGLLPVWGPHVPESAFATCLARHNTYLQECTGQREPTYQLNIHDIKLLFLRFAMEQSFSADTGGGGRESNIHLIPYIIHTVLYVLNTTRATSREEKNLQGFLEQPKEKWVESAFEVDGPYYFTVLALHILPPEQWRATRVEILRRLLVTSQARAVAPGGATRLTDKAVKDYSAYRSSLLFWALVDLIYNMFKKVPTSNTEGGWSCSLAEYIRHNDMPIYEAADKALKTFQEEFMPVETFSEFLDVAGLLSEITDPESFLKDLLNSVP

dH: -13.9 kcal/mol
Substance: UBE2A (from UniProt P49459 1-152) (enzyme)
